Legend:
[1] = target: F protein of RSV B-1 (respiratory syncytial virus B-1) (UniProt O36634); test: cell-based or functional assay
[2] = target: F protein of RSV B-wash (strain 18537) (respiratory syncytial virus B, strain 18537) (UniProt P13843); test: cell-based or functional assay
[3] = target: F protein of the Motavizumab MARM (K272E) (Respiratory Syncytial Virus strain A2, escape mutant) (UniProt P03420); test: cell-based or functional assay
[4] = target: F protein of the parental RSV A2 strain (Example 11) (Respiratory Syncytial Virus strain A2) (UniProt P03420); test: cell-based or functional assay
[5] = target: native RSV F protein from the RSV A2 strain (Respiratory Syncytial Virus strain A2) (UniProt P03420); test: cell-based or functional assay
[6] = target: F protein of the 58C5 MARM (N63K, M115K, E295G) (Respiratory Syncytial Virus strain A2, escape mutant) (UniProt P03420); test: cell-based or functional assay
[7] = target: RSV F A2 mutant F351S (human RSV, A2 strain) (UniProt P03420); test: mutant F in HEK 293 cells
[8] = target: RSV F A2 mutant V278M (human RSV, A2 strain) (UniProt P03420); test: mutant F in HEK 293 cells
[9] = target: RSV F A2 mutant N371D (human RSV, A2 strain) (UniProt P03420); test: mutant F in HEK 293 cells
[10] = target: RSV F A2 mutant S403A (human RSV, A2 strain) (UniProt P03420); test: mutant F in HEK 293 cells
[11] = target: RSV F A2 mutant Y86C (human RSV, A2 strain) (UniProt P03420); test: mutant F in HEK 293 cells
[12] = target: RSV F A2 mutant E82G (human RSV, A2 strain) (UniProt P03420); test: mutant F in HEK 293 cells
[13] = target: RSV F A2 mutant E463A (human RSV, A2 strain) (UniProt P03420); test: mutant F in HEK 293 cells

Work on Fab 58c5 yielded an Average Plaque Count, RSV B-1, Fab at 0.003 µg/ml (12.3 at 0 µg/ml) [1] of 11.7, an Average Plaque Count, RSV B-1, Fab at 0.016 µg/ml (12.3 at 0 µg/ml) [1] of 8.7 and an Average Plaque Count, RSV B-1, Fab at 0.08 µg/ml (12.3 at 0 µg/ml) [1] of 4.7. It also gave an Average Plaque Count, RSV B-1, Fab at 0.4 µg/ml (12.3 at 0 µg/ml) [1] of 0, an Average Plaque Count, RSV B-1, Fab at 2 µg/ml (12.3 at 0 µg/ml) [1] of 0 and an Average Plaque Count, RSV B-1, Fab at 10 µg/ml (12.3 at 0 µg/ml) [1] of 0.3. For the same substance, the ED50, plaque reduction, RSV B-1 [1] was 840 pM, the ED50, plaque reduction, RSV B-1 (mass concentration) [1] was 0.042 µg/mL and the Average Plaque Count, RSV B/wash, Fab at 0.003 µg/ml (26.3 at 0 µg/ml) [2] was 23.3. The Average Plaque Count, RSV B/wash, Fab at 0.016 µg/ml (26.3 at 0 µg/ml) [2] was 16.3, the Average Plaque Count, RSV B/wash, Fab at 0.08 µg/ml (26.3 at 0 µg/ml) [2] was 5 and the Average Plaque Count, RSV B/wash, Fab at 0.4 µg/ml (26.3 at 0 µg/ml) [2] was 0. The Average Plaque Count, RSV B/wash, Fab at 2 µg/ml (26.3 at 0 µg/ml) [2] was 0.7, the Average Plaque Count, RSV B/wash, Fab at 10 µg/ml (26.3 at 0 µg/ml) [2] was 1.3 and the ED50, plaque reduction, RSV B/wash [2] was 500 pM. It also gave an ED50, plaque reduction, RSV B/wash (mass concentration) [2] of 0.025 µg/mL.

Work on IgG form of 58c5 (antibody) yielded an ED50, plaque reduction, RSV B-1 [1] of 280 pM, an ED50, plaque reduction, Motavizumab MARM [3] of 173 pM and an ED50, plaque reduction, RSV A2 parental [4] of 115 pM. The ED50, plaque reduction, RSV B/wash [2] was 193 pM, the ED50, plaque reduction, RSV A2 [5] was 133 pM and the ED50, plaque reduction, 58C5 MARM [6] was greater than 66.7 nM. For the same substance, the immunoluminescence Mean [7] was 7.4, the immunoluminescence S1 [7] was 2.9 and the immunoluminescence S3 [7] was 6.1. The immunoluminescence S4 [7] was 14.7, the immunoluminescence Mean [8] was 99.8 and the immunoluminescence S1 [8] was 122. The immunoluminescence S2 [8] was 97.6 and the immunoluminescence S3 [8] was 79.6.

Motavizumab IgG (antibody) was tested, and the immunoluminescence Mean [9] was 26.9, the immunoluminescence Mean [10] was 28 and the immunoluminescence Mean [11] was 24.8. The immunoluminescence Mean [12] was 42.1 and the immunoluminescence Mean [13] was 101.

From patent US20140363427A1
